The text below walks through data of article PMC2650403.

Test [1] concerns the target Werner syndrome protein (WRN), recombinant His6-tagged, wild type (human) (UniProt Q14191).
Test [2] concerns the target WRN-E84A, full-length WRN with the N-terminal exonuclease inactivating mutation E84 to alanine (human) (UniProt Q14191).

With “Recombinant human replication protein A (RPA) (complex)”, the radiometric DNA helicase assay, percent unwinding of a telomeric-repeat substrate lacking the 3′-ss tail by WRN (3 nM) with RPA 6 to 24 nM in test [1] stood at 22%.

B1: Protector of telomeres 1, variant 1 (POT1v1) (natural protein)
chain: MSLVPATNYIYTPLNQLKGGTIVNVYGVVKFFKPPYLSKGTDYCSVVTIVDQTNVKLTCLLFSGNYEALPIIYKNGDIVRFHRLKIQVYKKETQGITSSGFASLTFEGTLGAPIIPRTSSKYFNFTTEDHKMVEALRVWASTHMSPSWTLLKLCDVQPMQYFDLTCQLLGKAEVDGASFLLKVWDGTRTPFPSWRVLIQDLVLEGDLSHIHRLQNLTIDILVYDNHVHVARSLKVGSFLRIYSLHTKLQSMNSENQTMLSLEFHLHGGTSYGRGIRVLPESNSDVDQLKKDLESANLTANQHSDVICQSEPDDSFPSSGSVSLYEVERCQQLSATILTDHQYLERTPLCAILKQKAPQQYRIRAKLRSYKPRRLFQSVKLHCPKCHLLQEVPHEGDLDIIFQDGATKTPDVKLQNTSLYDSKIWTTKNQKGRKVAVHFVKNNGILPLSNECLLLIEGGTLSEICKLSNKFNSVIPVRSGHEDLELLDLSAPFLIQGTIHHYGCKQCSSLRSIQNLNSLVDKTSWIPSSVAEALGIVPLQYVFVMTFTLDDGTGVLEAYLMDSDKFFQIPASEVLMDDDLQKSVDMIMDMFCPPGIKIDAYPWLECFIKSYNVTNGTDNQICYQIFDTTVAEDVI
As for B1, the radiometric DNA helicase assay, increase in unwound product of a 30-nt gap telomeric substrate pre-bound with POT1v1 (6 to 48 nM), WRN-E84A 6 nM; value at the 1:8 ratio of WRN-E84A to POT1v1 in test [2] was determined as 10%.
